How the values were obtained:
[1] = biological target: T1, human lymphotoxin (TNFβ) (human) (UniProt P01374); experiment: cell-based or functional assay
T1 sequence (looked up): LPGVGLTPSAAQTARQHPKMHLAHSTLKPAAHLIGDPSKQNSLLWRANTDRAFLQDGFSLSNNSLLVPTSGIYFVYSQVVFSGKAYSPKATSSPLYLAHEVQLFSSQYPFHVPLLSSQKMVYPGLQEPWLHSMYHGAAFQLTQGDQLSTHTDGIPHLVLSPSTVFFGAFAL

[2] = biological target: human tumor necrosis factor-α (TNFα) (human) (UniProt P01375); experiment: cell-based or functional assay
human tumor necrosis factor-α (TNFα) (human), sequence (P01375 77-233): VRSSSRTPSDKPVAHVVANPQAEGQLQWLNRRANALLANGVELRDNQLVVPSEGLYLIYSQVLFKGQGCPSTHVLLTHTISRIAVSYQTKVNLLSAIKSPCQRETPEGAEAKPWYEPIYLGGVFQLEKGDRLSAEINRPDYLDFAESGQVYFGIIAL

p55-sf2 (p55 TNF receptor/IgG1 heavy chain single fusion with truncated light chain JCK), sequence (P19438 other isoform, or with tags, fused parts or gaps): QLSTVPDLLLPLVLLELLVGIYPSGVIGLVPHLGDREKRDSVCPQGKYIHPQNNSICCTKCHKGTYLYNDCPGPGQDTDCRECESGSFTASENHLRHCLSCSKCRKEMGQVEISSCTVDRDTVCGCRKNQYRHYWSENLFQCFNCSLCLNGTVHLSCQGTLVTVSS

Molecule	amount needed for the same degree of TNFβ inhibition, against p75P-sf2 [1] [fold]	IL-6 in supernatant of FS-4 fibroblasts after 18 h; TNF 0.3 ng/ml, antibody 4 µg/ml [2] [ng/mL]	IL-6 in supernatant of FS-4 fibroblasts after 18 h; TNF 1.5 ng/ml, antibody 4 µg/ml [2] [ng/mL]	IL-6 in supernatant of FS-4 fibroblasts after 18 h; TNF 7.5 ng/ml, antibody 4 µg/ml [2] [ng/mL]
p55-sf2 (p55 TNF receptor/IgG1 heavy chain single fusion with truncated light chain JCK) (from UniProt P19438 3-159) (Fc fusion)	3	–	–	–
chimeric mouse/human IgG1 anti-platelet mAb (7E3) (antibody, INN chains, looked up, V domains shown, IgG1) VH: EVQLQQSGTVLARPGASVKMSCEASGYTFTNYWMHWVKQRPGQGLEWIGAIYPGNSDTSYIQKFKGKAKLTAVTSTTSVYMELSSLTNEDSAVYYCTLYDGYYVFAYWGQGTLVTVSA VL: EIVLTQSPVTLSVTPGDSVSLSCRASRDISNNLHWFQQTSHESPRLLIKYASQSMSGIPSRFSGSGSGTDFTLSINSVETEDFGMYFCQQTNSWPYTFGGGTKLEIK	–	1.6	1.96	2.16

From patent publication US20030194402A1
